Literature values in paper PMC5423825.

Target: CFluc398 (FGG-tagged C-terminal firefly luciferase fragment) CFluc398 (Photinus pyralis) [luciferase: P08659]

For “NFluc437 (FGG-tagged N-terminal firefly luciferase fragment) NFluc437 (from UniProt P08659)”, the Kd is listed as 112 µM.
